Source: patent US20180327500A1 (SYMPHOGEN A S, published 2018)

B1: chimeric antibody 9006 (antibody, V domains shown)
VH: QIHLGQSGPELKKPGETVKISCKASGYTFTNFRMNWVKQAPGKGLKWMGWINTYTGEPTYVDDLKGRFAFSLETSASTAYLQINNLKNEDMATYFCARKGIARAMDYWGQGTSVTVSS
VL: NIVMTQSPSSLSVSAGEMVTMSCKSSQSLLDSGNQKNYLAWYQQKPGQPPQLLIFGASTRESGVPDRFTGSGSGTDFTLTVSSVQAEDLAVYYCQNDHSYPYTFGGGTKLEIK
B2: chimeric antibody 9338 (antibody, V domains shown)
VH: QVQLQQPGAELAKPGASVRMSCKASGYTFTSYWMHWVKQRPGQGLEWIGYINPSSGHIENNQKFKDKATLTADKSSSTAYMQLSSLTFEDSAVYYCARGRFAYWGQGTLVTVSS
VL: DIVMTQSPAIMSASPGEKVTLTCSASSSVSSGYLYWYQQKPGSSPKLWIYSTSNLASGVPARFSGSGSGTSYSLTVNSMEAEDAASYFCHQWSSYPFTFGSGTKLELK

Molecular target: T1, His tagged human MET ECD (Sinobiological) (human, UniProt P08581 25-932)
T1 construct: Bought monovalent antigen; also called human MET antigen; not shown: His tag
Assay: BLI (Octet QK384); antibody captured on anti-human Fc sensors, monovalent MET ECD in solution, 1:1 Langmuir fit

T1 sequence (P08581 25-932): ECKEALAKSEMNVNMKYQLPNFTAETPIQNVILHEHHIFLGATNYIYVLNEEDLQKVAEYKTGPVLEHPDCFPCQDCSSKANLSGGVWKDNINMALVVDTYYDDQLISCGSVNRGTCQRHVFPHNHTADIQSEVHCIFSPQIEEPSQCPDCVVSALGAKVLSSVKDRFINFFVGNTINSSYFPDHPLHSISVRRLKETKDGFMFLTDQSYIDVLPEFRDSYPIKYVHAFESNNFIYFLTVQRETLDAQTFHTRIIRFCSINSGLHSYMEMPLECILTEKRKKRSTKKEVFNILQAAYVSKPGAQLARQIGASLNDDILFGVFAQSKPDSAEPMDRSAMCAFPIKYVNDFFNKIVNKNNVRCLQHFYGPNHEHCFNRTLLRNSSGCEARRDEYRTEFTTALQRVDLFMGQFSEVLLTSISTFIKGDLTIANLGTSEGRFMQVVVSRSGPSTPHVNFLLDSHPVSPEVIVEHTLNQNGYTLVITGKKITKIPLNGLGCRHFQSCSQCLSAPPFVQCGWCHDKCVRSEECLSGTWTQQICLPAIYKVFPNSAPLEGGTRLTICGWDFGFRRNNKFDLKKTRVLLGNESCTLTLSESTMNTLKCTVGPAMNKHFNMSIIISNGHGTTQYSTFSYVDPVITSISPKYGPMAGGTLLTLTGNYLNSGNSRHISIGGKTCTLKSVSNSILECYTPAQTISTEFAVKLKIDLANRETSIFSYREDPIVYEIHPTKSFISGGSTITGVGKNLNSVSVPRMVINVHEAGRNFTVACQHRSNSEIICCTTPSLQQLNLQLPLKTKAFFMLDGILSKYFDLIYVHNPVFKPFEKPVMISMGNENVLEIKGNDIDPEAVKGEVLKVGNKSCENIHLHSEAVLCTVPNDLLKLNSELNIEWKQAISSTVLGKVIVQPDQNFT

Binder	Kd [nM]	koff [s⁻¹]	kon [M⁻¹ s⁻¹]
B1	2.2	0.00012	54000
B2	0.6	0.00011	190000
